To fix the notation:
B1: library; numbered along this chain (parent)
chain: MAAAAAAAAEQQSSNGPVKKSMREKAVERRSVNKEHNSNFKAGYIPIDEDRLHKTGLRGRKGNLAICVIILLFILAVINLIITLVIWAVIRIGPNGCDSMEFHESGLLRFKQVSDMGVIHPLYKSTVGGRRNENLVITGNNQPIVFQQGTTKLSVENNKTSITSDIGMQFFDPRTQNILFSTDYETHEFHLPSGVKSLNVQKASTERITSNATSDLNIKVDGRAIVRGNEGVFIMGKTIEFHMGGNMELKAENSIILNGSVMVSTTRLPSSSSGDQLGSGDWVRYKLCMCADGTLFKVQVTSQNMGCQISDNPCGNTH

Variants of B1 are the subject of the series. The experiment in a line: SGCB cell-surface expression functional score (HA stain, bin4 vs bin1, normalised to synonymous) (log10 ratio); higher = more cell-surface SGCB (functional). The procedure:
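Deep mutational scan of full-length human SGCB (YFP-SGCB-HA, NNN codon sublibraries A-F) delivered by lentivirus at low MOI into ADG-HEK293 cells stably expressing SGCA, SGCD and SGCG. YFP-positive cells were stained for surface HA on unpermeabilized cells and FACS-sorted into bins. The functional score is log10(frequency in high bin 4 / frequency in low bin 1), normalised per chunk so that synonymous variants have mean 0 and SD 0.5. Scores are the median over codons and over duplicate biological replicates; scores below -0.5 are called non-functional. Scale: negative means deleterious.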
For the variant MAAAAAAAAEQQSSNGPVKKSMREKAVERRSVNKEHNSNFKAGYIPIDEDRLHKTGLPGRKGNLAICVIILLFILAVINLIITLVIWAVIRIGPNGCDSMEFHESGLLRFKQVSDMGVIHPLYKSTVGGRRNENLVITGNNQPIVFQQGTTKLSVENNKTSITSDIGMQFFDPRTQNILFSTDYETHEFHLPSGVKSLNVQKASTERITSNATSDLNIKVDGRAIVRGNEGVFIMGKTIEFHMGGNMELKAENSIILNGSVMVSTTRLPSSSSGDQLGSGDWVRYKLCMCADGTLFKVQVTSQNMGCQISDNPCGNTH [R58P], the “SGCB cell-surface expression functional score (log10)” value was 0.27. To MAAAAAAAAEQQSSNGPVKKSMREKAVERRSVNKEHNSNFKAGYIPIDEDRLHKTGLFGRKGNLAICVIILLFILAVINLIITLVIWAVIRIGPNGCDSMEFHESGLLRFKQVSDMGVIHPLYKSTVGGRRNENLVITGNNQPIVFQQGTTKLSVENNKTSITSDIGMQFFDPRTQNILFSTDYETHEFHLPSGVKSLNVQKASTERITSNATSDLNIKVDGRAIVRGNEGVFIMGKTIEFHMGGNMELKAENSIILNGSVMVSTTRLPSSSSGDQLGSGDWVRYKLCMCADGTLFKVQVTSQNMGCQISDNPCGNTH [R58F] belongs 0.09; to MAAAAAAAAEQQSSNGPVKKSMREKAVERRSVNKEHNSNFKAGYIPIDEDRLHKTGLKGRKGNLAICVIILLFILAVINLIITLVIWAVIRIGPNGCDSMEFHESGLLRFKQVSDMGVIHPLYKSTVGGRRNENLVITGNNQPIVFQQGTTKLSVENNKTSITSDIGMQFFDPRTQNILFSTDYETHEFHLPSGVKSLNVQKASTERITSNATSDLNIKVDGRAIVRGNEGVFIMGKTIEFHMGGNMELKAENSIILNGSVMVSTTRLPSSSSGDQLGSGDWVRYKLCMCADGTLFKVQVTSQNMGCQISDNPCGNTH [R58K], -0.66. With MAAAAAAAAEQQSSNGPVKKSMREKAVERRSVNKEHNSNFKAGYIPIDEDRLHKTGLDGRKGNLAICVIILLFILAVINLIITLVIWAVIRIGPNGCDSMEFHESGLLRFKQVSDMGVIHPLYKSTVGGRRNENLVITGNNQPIVFQQGTTKLSVENNKTSITSDIGMQFFDPRTQNILFSTDYETHEFHLPSGVKSLNVQKASTERITSNATSDLNIKVDGRAIVRGNEGVFIMGKTIEFHMGGNMELKAENSIILNGSVMVSTTRLPSSSSGDQLGSGDWVRYKLCMCADGTLFKVQVTSQNMGCQISDNPCGNTH [R58D] the figure was 0.21; with MAAAAAAAAEQQSSNGPVKKSMREKAVERRSVNKEHNSNFKAGYIPIDEDRLHKTGLGGRKGNLAICVIILLFILAVINLIITLVIWAVIRIGPNGCDSMEFHESGLLRFKQVSDMGVIHPLYKSTVGGRRNENLVITGNNQPIVFQQGTTKLSVENNKTSITSDIGMQFFDPRTQNILFSTDYETHEFHLPSGVKSLNVQKASTERITSNATSDLNIKVDGRAIVRGNEGVFIMGKTIEFHMGGNMELKAENSIILNGSVMVSTTRLPSSSSGDQLGSGDWVRYKLCMCADGTLFKVQVTSQNMGCQISDNPCGNTH [R58G], 0. To MAAAAAAAAEQQSSNGPVKKSMREKAVERRSVNKEHNSNFKAGYIPIDEDRLHKTGLAGRKGNLAICVIILLFILAVINLIITLVIWAVIRIGPNGCDSMEFHESGLLRFKQVSDMGVIHPLYKSTVGGRRNENLVITGNNQPIVFQQGTTKLSVENNKTSITSDIGMQFFDPRTQNILFSTDYETHEFHLPSGVKSLNVQKASTERITSNATSDLNIKVDGRAIVRGNEGVFIMGKTIEFHMGGNMELKAENSIILNGSVMVSTTRLPSSSSGDQLGSGDWVRYKLCMCADGTLFKVQVTSQNMGCQISDNPCGNTH [R58A] belongs 0.08; to MAAAAAAAAEQQSSNGPVKKSMREKAVERRSVNKEHNSNFKAGYIPIDEDRLHKTGLIGRKGNLAICVIILLFILAVINLIITLVIWAVIRIGPNGCDSMEFHESGLLRFKQVSDMGVIHPLYKSTVGGRRNENLVITGNNQPIVFQQGTTKLSVENNKTSITSDIGMQFFDPRTQNILFSTDYETHEFHLPSGVKSLNVQKASTERITSNATSDLNIKVDGRAIVRGNEGVFIMGKTIEFHMGGNMELKAENSIILNGSVMVSTTRLPSSSSGDQLGSGDWVRYKLCMCADGTLFKVQVTSQNMGCQISDNPCGNTH [R58I], 0.13; to MAAAAAAAAEQQSSNGPVKKSMREKAVERRSVNKEHNSNFKAGYIPIDEDRLHKTGLHGRKGNLAICVIILLFILAVINLIITLVIWAVIRIGPNGCDSMEFHESGLLRFKQVSDMGVIHPLYKSTVGGRRNENLVITGNNQPIVFQQGTTKLSVENNKTSITSDIGMQFFDPRTQNILFSTDYETHEFHLPSGVKSLNVQKASTERITSNATSDLNIKVDGRAIVRGNEGVFIMGKTIEFHMGGNMELKAENSIILNGSVMVSTTRLPSSSSGDQLGSGDWVRYKLCMCADGTLFKVQVTSQNMGCQISDNPCGNTH [R58H], 0.19. MAAAAAAAAEQQSSNGPVKKSMREKAVERRSVNKEHNSNFKAGYIPIDEDRLHKTGLLGRKGNLAICVIILLFILAVINLIITLVIWAVIRIGPNGCDSMEFHESGLLRFKQVSDMGVIHPLYKSTVGGRRNENLVITGNNQPIVFQQGTTKLSVENNKTSITSDIGMQFFDPRTQNILFSTDYETHEFHLPSGVKSLNVQKASTERITSNATSDLNIKVDGRAIVRGNEGVFIMGKTIEFHMGGNMELKAENSIILNGSVMVSTTRLPSSSSGDQLGSGDWVRYKLCMCADGTLFKVQVTSQNMGCQISDNPCGNTH [R58L]: the “SGCB cell-surface expression functional score (log10)” value is 0. To MAAAAAAAAEQQSSNGPVKKSMREKAVERRSVNKEHNSNFKAGYIPIDEDRLHKTGLEGRKGNLAICVIILLFILAVINLIITLVIWAVIRIGPNGCDSMEFHESGLLRFKQVSDMGVIHPLYKSTVGGRRNENLVITGNNQPIVFQQGTTKLSVENNKTSITSDIGMQFFDPRTQNILFSTDYETHEFHLPSGVKSLNVQKASTERITSNATSDLNIKVDGRAIVRGNEGVFIMGKTIEFHMGGNMELKAENSIILNGSVMVSTTRLPSSSSGDQLGSGDWVRYKLCMCADGTLFKVQVTSQNMGCQISDNPCGNTH [R58E] belongs -0.08; to MAAAAAAAAEQQSSNGPVKKSMREKAVERRSVNKEHNSNFKAGYIPIDEDRLHKTGLSGRKGNLAICVIILLFILAVINLIITLVIWAVIRIGPNGCDSMEFHESGLLRFKQVSDMGVIHPLYKSTVGGRRNENLVITGNNQPIVFQQGTTKLSVENNKTSITSDIGMQFFDPRTQNILFSTDYETHEFHLPSGVKSLNVQKASTERITSNATSDLNIKVDGRAIVRGNEGVFIMGKTIEFHMGGNMELKAENSIILNGSVMVSTTRLPSSSSGDQLGSGDWVRYKLCMCADGTLFKVQVTSQNMGCQISDNPCGNTH [R58S], -0.22; to MAAAAAAAAEQQSSNGPVKKSMREKAVERRSVNKEHNSNFKAGYIPIDEDRLHKTGLCGRKGNLAICVIILLFILAVINLIITLVIWAVIRIGPNGCDSMEFHESGLLRFKQVSDMGVIHPLYKSTVGGRRNENLVITGNNQPIVFQQGTTKLSVENNKTSITSDIGMQFFDPRTQNILFSTDYETHEFHLPSGVKSLNVQKASTERITSNATSDLNIKVDGRAIVRGNEGVFIMGKTIEFHMGGNMELKAENSIILNGSVMVSTTRLPSSSSGDQLGSGDWVRYKLCMCADGTLFKVQVTSQNMGCQISDNPCGNTH [R58C], -0.55. To MAAAAAAAAEQQSSNGPVKKSMREKAVERRSVNKEHNSNFKAGYIPIDEDRLHKTGLNGRKGNLAICVIILLFILAVINLIITLVIWAVIRIGPNGCDSMEFHESGLLRFKQVSDMGVIHPLYKSTVGGRRNENLVITGNNQPIVFQQGTTKLSVENNKTSITSDIGMQFFDPRTQNILFSTDYETHEFHLPSGVKSLNVQKASTERITSNATSDLNIKVDGRAIVRGNEGVFIMGKTIEFHMGGNMELKAENSIILNGSVMVSTTRLPSSSSGDQLGSGDWVRYKLCMCADGTLFKVQVTSQNMGCQISDNPCGNTH [R58N] belongs 0.17; to MAAAAAAAAEQQSSNGPVKKSMREKAVERRSVNKEHNSNFKAGYIPIDEDRLHKTGLMGRKGNLAICVIILLFILAVINLIITLVIWAVIRIGPNGCDSMEFHESGLLRFKQVSDMGVIHPLYKSTVGGRRNENLVITGNNQPIVFQQGTTKLSVENNKTSITSDIGMQFFDPRTQNILFSTDYETHEFHLPSGVKSLNVQKASTERITSNATSDLNIKVDGRAIVRGNEGVFIMGKTIEFHMGGNMELKAENSIILNGSVMVSTTRLPSSSSGDQLGSGDWVRYKLCMCADGTLFKVQVTSQNMGCQISDNPCGNTH [R58M], -0.15; to MAAAAAAAAEQQSSNGPVKKSMREKAVERRSVNKEHNSNFKAGYIPIDEDRLHKTGLQGRKGNLAICVIILLFILAVINLIITLVIWAVIRIGPNGCDSMEFHESGLLRFKQVSDMGVIHPLYKSTVGGRRNENLVITGNNQPIVFQQGTTKLSVENNKTSITSDIGMQFFDPRTQNILFSTDYETHEFHLPSGVKSLNVQKASTERITSNATSDLNIKVDGRAIVRGNEGVFIMGKTIEFHMGGNMELKAENSIILNGSVMVSTTRLPSSSSGDQLGSGDWVRYKLCMCADGTLFKVQVTSQNMGCQISDNPCGNTH [R58Q], -0.12.

Consider MAAAAAAAAEQQSSNGPVKKSMREKAVERRSVNKEHNSNFKAGYIPIDEDRLHKTGTRGRKGNLAICVIILLFILAVINLIITLVIWAVIRIGPNGCDSMEFHESGLLRFKQVSDMGVIHPLYKSTVGGRRNENLVITGNNQPIVFQQGTTKLSVENNKTSITSDIGMQFFDPRTQNILFSTDYETHEFHLPSGVKSLNVQKASTERITSNATSDLNIKVDGRAIVRGNEGVFIMGKTIEFHMGGNMELKAENSIILNGSVMVSTTRLPSSSSGDQLGSGDWVRYKLCMCADGTLFKVQVTSQNMGCQISDNPCGNTH [L57T], for which the “SGCB cell-surface expression functional score (log10)” value worked out at 0.18.

In the case of MAAAAAAAAEQQSSNGPVKKSMREKAVERRSVNKEHNSNFKAGYIPIDEDRLHKTGVRGRKGNLAICVIILLFILAVINLIITLVIWAVIRIGPNGCDSMEFHESGLLRFKQVSDMGVIHPLYKSTVGGRRNENLVITGNNQPIVFQQGTTKLSVENNKTSITSDIGMQFFDPRTQNILFSTDYETHEFHLPSGVKSLNVQKASTERITSNATSDLNIKVDGRAIVRGNEGVFIMGKTIEFHMGGNMELKAENSIILNGSVMVSTTRLPSSSSGDQLGSGDWVRYKLCMCADGTLFKVQVTSQNMGCQISDNPCGNTH [L57V], the “SGCB cell-surface expression functional score (log10)” value is 0.2. To MAAAAAAAAEQQSSNGPVKKSMREKAVERRSVNKEHNSNFKAGYIPIDEDRLHKTGWRGRKGNLAICVIILLFILAVINLIITLVIWAVIRIGPNGCDSMEFHESGLLRFKQVSDMGVIHPLYKSTVGGRRNENLVITGNNQPIVFQQGTTKLSVENNKTSITSDIGMQFFDPRTQNILFSTDYETHEFHLPSGVKSLNVQKASTERITSNATSDLNIKVDGRAIVRGNEGVFIMGKTIEFHMGGNMELKAENSIILNGSVMVSTTRLPSSSSGDQLGSGDWVRYKLCMCADGTLFKVQVTSQNMGCQISDNPCGNTH [L57W] belongs 0.44. To MAAAAAAAAEQQSSNGPVKKSMREKAVERRSVNKEHNSNFKAGYIPIDEDRLHKTGYRGRKGNLAICVIILLFILAVINLIITLVIWAVIRIGPNGCDSMEFHESGLLRFKQVSDMGVIHPLYKSTVGGRRNENLVITGNNQPIVFQQGTTKLSVENNKTSITSDIGMQFFDPRTQNILFSTDYETHEFHLPSGVKSLNVQKASTERITSNATSDLNIKVDGRAIVRGNEGVFIMGKTIEFHMGGNMELKAENSIILNGSVMVSTTRLPSSSSGDQLGSGDWVRYKLCMCADGTLFKVQVTSQNMGCQISDNPCGNTH [L57Y] belongs 0.49.

The values above are taken from the supplement of paper PMC10266784.
